Columns and labels:
[1] = biological target: CCR5-tTA fusion construct containing the low efficiency cleavage site (UniProt P51681); assay: cell-based or functional assay
[2] = biological target: EGFR-TEV-NIa-Pro cleavage (Leu)-tTA (human) (UniProt P00533); assay: cell-based or functional assay

Sequence of UniProt P51681 (P51681 whole entry, the tested form may be a part): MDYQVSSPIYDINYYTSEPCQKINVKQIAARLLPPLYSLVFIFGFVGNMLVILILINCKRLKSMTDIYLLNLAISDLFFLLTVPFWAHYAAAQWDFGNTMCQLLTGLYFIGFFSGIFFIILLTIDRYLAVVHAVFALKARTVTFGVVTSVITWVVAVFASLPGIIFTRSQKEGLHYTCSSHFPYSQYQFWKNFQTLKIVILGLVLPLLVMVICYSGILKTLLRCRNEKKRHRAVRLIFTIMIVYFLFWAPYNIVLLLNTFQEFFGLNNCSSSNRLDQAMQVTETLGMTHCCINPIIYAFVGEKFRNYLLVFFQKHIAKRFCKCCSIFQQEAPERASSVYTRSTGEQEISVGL

Row | induction of β-galactosidase reporter gene expression over background at 1 µg/ml RANTES, clone 34 cells with stable ARRB2-TEV-NIa protease [1] [fold] | increase of luciferase reporter gene activity at 100 ng/ml ligand, cells co-expressing PLC Gamma1-TEV [2] [fold] | Substance
1 | 40 |  | Regulated on Activation, Normal T-Cell Expressed and Secreted (RANTES) (from UniProt P13501 24-91) (ligand)
2 |  | 18.3 | human Transforming Growth Factor-Alpha (from UniProt P01135 40-89) (ligand)

Reference: patent publication US20070224615A1
